Test results from the DeepSol protein solubility set.

assay: soluble on expression in E. coli; label from the status in PepcDB or PDB records

Sequence	soluble on expression in E. coli
MMATQTLSIDSYQDGQQMQVVTELKTEQDPNCSDPDAEGVSPPPIESQTPMDADKQAIYRHPLFPLLALLFEKCEQSTQGSEGTTSASFDVDIENFVRKQEKDGKPFFCEDPETDNLMVKAIQVLRIHLLELEKVNELCKDFCSRYIACLKTKMNSETLLSGEPGSPYSPVQSQQIQSAITGTLSPQGIVVPASALQQGNVTMATVAGGTVYQPVTVVTPQGQVVTQALSPGTIRIQNSQLQLQLNQDLSILHQEDGSSKNKRGVLPKHATNVMRSWLFQHIGHPYPTEDEKKQIAAQTNLTLLQVNNWFINARRRILQPMLDSSCSETPKTKKKPAQNRPVQRFWPDSLASGVAQATPSELAMSEGAVVTITTPVNMNVDSLQSLSSDGATLAVQQVMMAGQSEDESVDSTEDEGGALAPTHISGLVLENSDSLQ	not soluble
MSLGELFAVFNEKLTIPEQEALMFLYAYMPTGDVTDYTGDYYLENVRLSDQARREMPWGKEIPDDVFRHFVLPIRVNNENLDDSRRVFYNELKDRVKNLSLHDAVLEVNHWCHEKVIYTPSDARTSAPLASVKTAYGRCGEESTFTVAALRSVGIPARQVYTPRWAHTDDNHAWVEAWVDGKWYFFGACEPEPVLNLGWFNAPASRGMLMHTKVFGRYTGQEEIMYETPNYTEINVIDNYAPTAKGSVLVTDAEGQPVADATVEFKVYNYAEFYTVATKHTDRSGHASLTAGKGDMLVWASKDGRFGYSKLSFGKDNELKITLDKNASETYSLPLDIVPPAEGEGHHHHHH	not soluble
MDILKQLQSSTNLTPNVLARLAIALSLLSKEPIESFDSDTNGLEFNRNTLTGEYDFVYKALIAQQLGRPITDDEYFPSLIKKHLDRGAKWLENEYKYAGNYEKLIKGLAHFELEMIR	not soluble
MIDALLQEKITTRLIDTAPTIPVGVSNRHVHLSQQDVEALFGVGYQLTPFKPLRQPGQFAAEECVTVVGPKGSLTHVRVLGPVRPTSQLEISRADCFTLGIKAPVRESGQLENAGDALLVGPKGHVELHSQVICAWRHIHMSPQDARLLNVSNGQKVSVRSHGERQLTFDEVVVRVRNDFALELHIDTEEANAAGLKNGAQVTLIR	not soluble
SSKKYKLSEIHHLHPEYVRVSEHFKASMKNFKIEKIKKIENSELLDKFTWKKSQMKEEGKLLFYATSRAYVESICSNNFDSFLHETHENKYGKGIYFAKDAIYSHKNCPYDAKNVVMFVAQVLVGKFIEGNITYTSPPPQFDSCVDTRSNPSVFVIFQKDQVYPQYVIEYTED	soluble
MLPDVQLLKPEVPIGLSRVGATGIKKLVEVQREGKRPIILISTFDVFVDLPAHLKGVNLSRNFEVIDEVLETLTAKPIENIEDLVVEIADHLLKRHEYATKAEARMNSELIMRKRTPKTGQRTQEVVKIFGEATLGRDGSKVIMVGVEVTGITACPCAQELVKASSAERLAKMGFDEETIQKILDAIPVATHNQRGRATLKVQVTDSFKVPIAKLIDVAKSSMSYETYEILKREDELAVVEAAHRNTRFVEDGVRYMAMELLKTFPNAPDDILVFLRQENEESIHQHNVVAERFATFGELRNEIGSPDASGSSAD	soluble
MGSDKIHHHHHHMRAKAKLYPKEAARLIREKPGVREAVTGATLHFERNRLKAYAEVPIEAWRERAKAVKDHVLTHLDHYLELAERRLRENGVQVHWAETPEDAHRVLREVVARHGVKRAVKAKSMLTEELGVNPLLEALGVEVYETDLGEYLIQLLGEPPSHIVGPAIHLSLEEIQRLFHQRFGTPLDAPPEALAQVARRVLREAFLTAELGISGANFLVAETGTLALMENEGNIRLSTSLPRVHVAFVGIEKLLPRFADLALFLPLAARAATGQRLSTFVSLIQGPAREGEEGPLEVHVVLVDNGRTALLHDPEAWETLRCLRCGACLNACPVYRQTGGHPYGYVYSGPIGAVLDPGLLTLEEAYPLPYASTLCGACLEACPVKIPIPKLLLAWRHRAVEEGLTPSWEHGAMRAFRKVMESPALYRLFSKGLRGLPLPQDLLPLLKAWTEGRGPLKPSPKPFHELWKEVERGG	not soluble
MSYNYLKAARKIICIGRNYAAHIKELNNSTPKQPFFFLKPTSSIVTPLSSSLVKTTRPANSTFNGLNEDGTNPGPIFIPRGVKVHHEIELALIVSKHLSNVTKMKPEEVYDSISGVALALDLTARNVQDEAKKKGLPWTISKGFDTFMPISAIVSREKFSSYKSNLQDIFRVKCSVNGQLRQDGGTNLMLHPLHKILQHISTMISLEPGDIILTGTPAGVGELKPGDRVHCELLQNNDNIVDMNFECENRPGPYEFRET	soluble
MDDHGRTPSTNQPILYVLDTNVLIHDPNALLNFEEHHVAIPMTVLEELDKLKAGKHSVAAECRQAIRLIDKTLGEASPEEVEKGVPIDRGTGVFKGFLSILMSKREEPNSLLPEHLNDNIIINQLIDLHARNKDLSVVLVTKDINMRLKARACGIDAEDYSTDQLVDDVSLLSRGYHDMTGSFWDRVNKVDTRQERGRTWHRVQLNEMLPAVHINEFIVDEQGFVGWIKGVKNDELLILDMHQEPLLHQEAWGLKPRDIYQGLALFALLDPDIHLVNLSGPAGSGKTILALAAAIEQTMVTKRYRRIIATRSVQGLDQEIGFLPGTEAEKMEPWLGAITDNLEALHMDDENTHGSVDYILSKVPLQFKSLNYIRGRSFQQSLILIDECQNLTPHQMKTIITRAGAGSKVVCLGNLAQIDTPYLSATSSGLTYLTERFKDFPNGVHLTLQGVPRSILAEYAESHL	soluble
MHTKGPTPQQHDGSALRIGIVHARWNETIIEPLLAGTKAKLLACGVKESNIVVQSVPGSWELPIAVQRLYSASQLQTPSSGPSLSAGDLLGSSTTDLTALPTTTASSTGPFDALIAIGVLIKGETMHFEYIADSVSHGLMRVQLDTGVPVIFGVLTVLTDDQAKARAGVIEGSHNHGEDWGLAAVEMGVRRRDWAAGKTE	soluble
MLSFVIPAHDEAALIGDTLQCLHACAQAMQLDHEVIVVADACEDATAAIARSHGAQVLEVLEVQLRHIAATRNAGAQAAQGEHLLFLDADTSINPQVVGAALAALDAGAVGGGARVHLQGKRVWSERVAQAVFGWFFRVSGIAPGCFLFCTRAAFVSAGGFDTRYYAGEDVALSRALARCGRFVILRQTVHTSDRKLRSFSKREHLGLLLRFLWRGRRMLQTRDALGFWYQRRRLEHHHHHH	not soluble
MGSDKIHHHHHHMKTTSPSSYDEMLNADGSVRSAYAGYCKWYDEQPPDLLRRKGSEAEAFFRRTGITFNVYGNEDAEERLIPFDMVPRIITAQQWRKLSRGIEQRVRALNAFLHDLYHRQEIVRSGRLPVRLLKGNEAFLPEMVGFTPPGGVYTHIVGIDLVRTGEDDFMVLEDNARTPSGVSYMLENRETMMAMFPELFTRVRVREVSDYPRRLARSLAACAPPACDGKKPVVAVLTPGIYNSAYFEHAFLADQMGAELVEGSDLRVENGRIAMRTTRGYQPIDVLYRRVDDEYLDPLSFNPGSVLGVSGIMDVYRSGGITIANAPGTGIADDKAIYSFMPEIVEFYTGEKPILQNVPTWRCAEPDALAYVLDNLAELVVKEVHGSGGYGMLIGPTSSRKELAAFEAKLRARPENYIAQPTLSLSTVPILTKAGLAPRHVDLRPFVLVSPNGIDITPGGLTRVALKKGSLVVNSSQGGGTKDSWVLDD	not soluble
MAKYCLKKTSKRVSCAKRYKIEKKVRDHNRKVKKEAKKNGTTNKKEKTISVPNSCPFKEEILVQAEQEREKIKVRQEAAKEAAKIHRIEKRKNNLPANFESMVAKASKQGTEFDKKVASAAEHEKFNTLDDKTIKAYASEVRKTVEIADVIIQVLDARDPLGSRSKSVEDQVLKGGKRLVLLLNKIDLVPRENVQKWLEYLRGQFPTIAFKASTQEQKSNIGRFNSAILNNTETSKCVGADIVMKILANYCRNKDIKTSIRVGVVGFPNVGKSSVINSLKRRKACNVGNLPGITKEIQEVELDKNIRLIDSPGVILVSQKDLDPIEVALKNAIRVDNLLDPIAPVHAILRRCSKETIMLHYNLADFNSVDQFLAQLARRIGKLRRGARPDVNAAAKRVLNDWNTGKLRYYTHPPEQGTAKEDIVVPAEVVSQFSKEFDIDAIAEEQNQIVEGLPMESDIIAPHNSDEEEDDDDEMETDVNEKKQTVTSGRKVKGPTKDDDKPVLPESLALEGNVQLNKLIKTAIKKQKKKSKKTANRADKLSDSLGNMLGGDAMEM	not soluble
GSQNNECKMVDLRGAKVASFTVEGCELICLPQAFDLFLKHLVGGLHTVYTKLKRLEITPVVCNVEQVRILRGLGAIQPGVNRCKLISRKDFETLYNDCTNA	soluble
MGHHHHHHSHMDNAERPRARRRRKPRVLFSQAQVYELERRFKQQRYLSAPERDQLASVLKLTSTQVKIWFQNRRYKCKRQRQDQTLELVGLPPPPPPPARRIAVPVLVRDGKPCLGD	soluble
MAHHHHHHSSGLEVLFQGPEPKKYAVTDDYQLSKQVLGLGVNGKVLECFHRRTGQKCALKLLYDSPKARQEVDHHWQASGGPHIVCILDVYENMHHGKRCLLIIMECMEGGELFSRIQERGDQAFTEREAAEIMRDIGTAIQFLHSHNIAHRDVKPENLLYTSKEKDAVLKLTDFGFAKETTQNALQTPCYTPYYVAPEVLGPEKYDKSCDMWSLGVIMYILLCGFPPFYSNTGQAISPGMKRRIRLGQYGFPNPEWSEVSEDAKQLIRLLLKTDPTERLTITQFMNHPWINQSMVVPQTPLHTARVLQEDKDHWDEVKEEMTSALATMRVDYDQV	soluble
MVKPMHLFAVVDALEQAQQFQQVLASRDVSTELVQIEQLNARFLRHHPELALCVDLDGLWLSANGMKMQPDWQAEIPRLKRASLKSEMIARACQINEQPSLIDATAGLGHDSLLMAYLGAHVTLVERHPVLFTLLEDAKSKAENDPFLSKYMQRIHLIFQDAHYYLQQCNQDDRKVDVIYLDPMFPQRDQHHQVIKKQAQVKKQMQLLHLLLPEDGEMDLGDQLLPLAQQIASRVVVKRPKHAVFLNEQQPDHQWQGDACRFDAYFQISM	not soluble
MSNAIEINELHWLLAVTQNIDVGIVVLDLNYRVTVWNTFMENRSGVVPYVAIDKTFFELFPEVNRQWLSKKIDNVVTLGTPAFTIWEQRPYLVRFKNYQPITGHEEFMYQNTTLFPLRSTTGAISHVCLVIYDVTDVAANRN	not soluble
MGSDKIHHHHHHMKFPERFAHLPPYAFPRLRALLDHHAPGGDVVQLTIGEPKHEFPAWVTDVIVENASAFNNYPQNEGSDALRGAMADWAAQRYGVTLDPATRVMALNGTREGLYNAAMALCPEEKNGQRPVVLIPNPFYQVYMIAAISVAAEPVFVPATDETGHLPDYASLPEEVLNRTAIAYICSPANPQGAVASREYWQQLFALAEKYDFKVFADECYSEIYRDTAPVGALTVADEMGLDPERVVLFNSLSKRSNLPGLRCGLLAGGPETLVQVKKLRAYSGAPIPGPLQAAAAKVWADEVHVAENRALYQEKYRIADEVFAGLNGYMSPEAGFFLWLPVEDGEAATLKLWQETGVRVLPGAFLAQGKGAENPGHGYIRVALVASEEQTRASLQLLRDCLY	not soluble
MGSDKIHHHHHHMLDDHTQLEFPASGMTELPLIWQPQVIRCKAAGPGGRPLLVLLDTGTDPSAIDLTLARRLDLRLGDFALGSDATCDTVPFTETVLPWLRLGEVMLRNLYLMAVDLRQMPFPVDLVLGYNVLHRLNLTIDYAGQTVRLCHPDLAPPPPGAEGASVPLRFFEHFPALPAQIIAPSGATHDVILTIDTGSNGALTVSRDLAASLHLDLHTVQAATGHGFAAATPVSRGFTVDLQLGPFRLPAVEVDVPATSHGDLGRQGRANVGNRLLSRFRRLTLDYRREVCILDR	not soluble
